Measured values: the supplement of paper PMC7125110
± gives the standard error. For part of these data: Variants at the floor of the assay were thinned out.

B1: glmS ribozyme (parent)
chain: AUAAAAGCGCCAGAACUACAGAAAUGUAGUUGACGAGGAGGAGGUUUAUCGAAUUUUCGGCGGAUGCCUCCAAA

What was measured:
Conditions in all cases: with glucosamine-6-phosphate
glucosamine-6-phosphate [1] = variants of: B1; experiment: kcat; higher = faster cleavage; RNA array
Procedure, shortened: (§1)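 Tiles bearing barcoded ribozyme variants, transcribed in situ by E. coli RNA polymerase on sequenced MiSeq chips, were imaged over ~14 h at 37 °C using a hybridised Cy3 probe. Glucosamine-6-phosphate was supplied at 40 μM to 10 mM in HEPES/KCl/Mg(OAc)2 buffer. kobs came from one- or two-exponential decay fits to normalised per-tile medians, and weighted Michaelis–Menten fits then provided kcat and KM.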

glucosamine-6-phosphate [2] = variants of: B1; experiment: KM; higher = weaker cofactor use; RNA array
Procedure, shortened: as §1

glucosamine-6-phosphate [3] = variants of: B1; experiment: self-cleavage kobs at 640 uM GlcN6P; higher = faster cleavage; RNA array
Procedure, shortened: as §1

glucosamine-6-phosphate [4] = variants of: B1; experiment: self-cleavage kobs at 2500 uM GlcN6P; higher = faster cleavage; RNA array
Procedure, shortened: as §1

glucosamine-6-phosphate [5] = variants of: B1; experiment: self-cleavage kobs at 10000 uM GlcN6P; higher = faster cleavage; RNA array
Procedure, shortened: as §1

glucosamine-6-phosphate [6] = variants of: B1; experiment: self-cleavage kobs at 40 uM GlcN6P; higher = faster cleavage; RNA array
Procedure, shortened: as §1

glucosamine-6-phosphate [7] = variants of: B1; experiment: self-cleavage kobs at 160 uM GlcN6P; higher = faster cleavage; RNA array
Procedure, shortened: as §1

Variant	kcat (glucosamine-6-phosphate [1])	KM (glucosamine-6-phosphate [2])	self-cleavage kobs at 640 uM GlcN6P (glucosamine-6-phosphate [3])	self-cleavage kobs at 2500 uM GlcN6P (glucosamine-6-phosphate [4])	self-cleavage kobs at 10000 uM GlcN6P (glucosamine-6-phosphate [5])	self-cleavage kobs at 40 uM GlcN6P (glucosamine-6-phosphate [6])	self-cleavage kobs at 160 uM GlcN6P (glucosamine-6-phosphate [7])
C61G C67G	1.22e-05 ± 1.5e-06 s⁻¹	–	–	–	–	–	–
C11A U45A	0.000361 ± 6.9e-05 s⁻¹	3010 ± 1100 µM	5.63e-05 ± 1.2e-05 s⁻¹	0.000214 ± 3.6e-05 s⁻¹	0.000262 ± 3.8e-05 s⁻¹	–	–
A72C	0.00605 ± 0.0029 s⁻¹	–	0.00257 ± 0.00043 s⁻¹	0.00362 ± 0.00077 s⁻¹	0.0121 ± 0.0021 s⁻¹	0.000372 ± 7.3e-05 s⁻¹	–
U31C G66U	0.000326 ± 6.8e-05 s⁻¹	4610 ± 1700 µM	–	0.000124 ± 1.6e-05 s⁻¹	0.000214 ± 3.5e-05 s⁻¹	–	–
G13C C71G	2.45e-05 ± 2.8e-06 s⁻¹	–	–	–	–	–	–
A12C A15C	0.00209 ± 0.00064 s⁻¹	2000 ± 880 µM	0.000451 ± 9e-05 s⁻¹	0.000976 ± 0.00019 s⁻¹	0.00216 ± 0.00038 s⁻¹	6.78e-05 ± 1.4e-05 s⁻¹	0.000151 ± 2.5e-05 s⁻¹
A14C C68U	0.000506 ± 4e-05 s⁻¹	1460 ± 250 µM	0.00015 ± 2.1e-05 s⁻¹	0.000305 ± 6.4e-05 s⁻¹	0.000447 ± 5e-05 s⁻¹	–	6.97e-05 ± 2.3e-05 s⁻¹
U31G A39U	0.0136 ± 0.0028 s⁻¹	3520 ± 930 µM	0.00183 ± 0.00041 s⁻¹	0.00485 ± 0.00084 s⁻¹	0.0106 ± 0.0011 s⁻¹	0.000179 ± 1.6e-05 s⁻¹	0.000492 ± 7.3e-05 s⁻¹
A42U A53U	0.000105 ± 1.1e-05 s⁻¹	–	–	8.5e-05 ± 1.5e-05 s⁻¹	9.14e-05 ± 8.2e-06 s⁻¹	–	–
C11A A52G C58G	1.09e-05 ± 2.8e-06 s⁻¹	–	–	–	–	–	< 1e-05 s⁻¹
A14U A39G	0.0158 ± 0.0077 s⁻¹	–	0.00493 ± 0.0011 s⁻¹	0.00644 ± 0.0013 s⁻¹	0.0136 ± 0.0025 s⁻¹	0.000381 ± 6.3e-05 s⁻¹	0.000604 ± 0.00015 s⁻¹
A15C U56C	0.00118 ± 0.00019 s⁻¹	2470 ± 690 µM	0.000202 ± 3.2e-05 s⁻¹	0.000708 ± 9.2e-05 s⁻¹	0.000914 ± 9.9e-05 s⁻¹	–	8.66e-05 ± 1.7e-05 s⁻¹
A15C U56A	0.00477 ± 0.0013 s⁻¹	1930 ± 760 µM	0.00107 ± 0.00016 s⁻¹	0.00218 ± 0.0005 s⁻¹	0.00482 ± 0.0008 s⁻¹	0.000113 ± 1.7e-05 s⁻¹	–
A14G A42U	0.000931 ± 0.00011 s⁻¹	3180 ± 600 µM	0.000152 ± 2.5e-05 s⁻¹	0.000357 ± 7e-05 s⁻¹	0.000738 ± 9.3e-05 s⁻¹	–	5.25e-05 ± 1.1e-05 s⁻¹
G29A C70A	3.87e-05 ± 5e-06 s⁻¹	–	4.17e-05 ± 1.5e-05 s⁻¹	4.02e-05 ± 1.1e-05 s⁻¹	2.96e-05 ± 1.4e-05 s⁻¹	–	–
A6G U45A	0.000591 ± 0.00015 s⁻¹	–	–	0.000454 ± 0.00011 s⁻¹	0.000455 ± 8.7e-05 s⁻¹	–	–
C11A U31G	0.000375 ± 9.9e-05 s⁻¹	3900 ± 1600 µM	4.58e-05 ± 1.1e-05 s⁻¹	0.000179 ± 3.7e-05 s⁻¹	0.000253 ± 5.7e-05 s⁻¹	–	–
A6U A64G	0.000266 ± 4.3e-05 s⁻¹	1910 ± 590 µM	7.26e-05 ± 7.4e-06 s⁻¹	0.000128 ± 1.6e-05 s⁻¹	0.00025 ± 2.8e-05 s⁻¹	–	–
G40A U45A	0.00316 ± 0.00068 s⁻¹	510 ± 160 µM	0.00157 ± 0.00029 s⁻¹	0.00221 ± 0.00084 s⁻¹	0.00427 ± 0.00099 s⁻¹	0.000251 ± 3.8e-05 s⁻¹	0.000585 ± 0.00027 s⁻¹
A12G G51C	< 1e-05 s⁻¹	–	–	< 1e-05 s⁻¹	< 1e-05 s⁻¹	< 1e-05 s⁻¹	< 1e-05 s⁻¹
G44U A53G	0.000308 ± 2.1e-05 s⁻¹	997 ± 240 µM	–	0.000223 ± 6e-05 s⁻¹	0.00028 ± 3.8e-05 s⁻¹	–	3.95e-05 ± 1.8e-05 s⁻¹
A12U U57G	0.000297 ± 3.7e-05 s⁻¹	2260 ± 590 µM	6.1e-05 ± 1.2e-05 s⁻¹	0.000162 ± 2.6e-05 s⁻¹	0.000241 ± 3e-05 s⁻¹	–	4.4e-05 ± 2.1e-05 s⁻¹
A6U G29A	3.18e-05 ± 3.2e-06 s⁻¹	–	–	2.95e-05 ± 1.3e-05 s⁻¹	2.9e-05 ± 9.8e-06 s⁻¹	< 1e-05 s⁻¹	–
U31A A48C	0.000149 ± 3.3e-05 s⁻¹	–	4.87e-05 ± 1.3e-05 s⁻¹	7.42e-05 ± 1.5e-05 s⁻¹	0.00014 ± 2.4e-05 s⁻¹	–	–
C11A U30G	0.000664 ± 7.4e-05 s⁻¹	6140 ± 920 µM	6.39e-05 ± 1.1e-05 s⁻¹	0.000172 ± 5.6e-05 s⁻¹	0.000422 ± 9.6e-05 s⁻¹	–	–
G32A G60C	< 1e-05 s⁻¹	183 ± 55 µM	–	–	< 1e-05 s⁻¹	–	–
C11U A14G	0.0102 ± 0.0018 s⁻¹	2230 ± 580 µM	0.00207 ± 0.0003 s⁻¹	0.00674 ± 0.0012 s⁻¹	0.00811 ± 0.001 s⁻¹	0.000229 ± 4e-05 s⁻¹	0.000583 ± 0.00013 s⁻¹
U31A A42G	0.0179 ± 0.0037 s⁻¹	1430 ± 370 µM	–	0.00902 ± 0.0026 s⁻¹	0.0188 ± 0.0042 s⁻¹	0.000495 ± 7.3e-05 s⁻¹	0.00191 ± 0.00054 s⁻¹
A15G C68A	6.63e-05 ± 4.7e-06 s⁻¹	131 ± 49 µM	5.49e-05 ± 1.2e-05 s⁻¹	7.32e-05 ± 1.2e-05 s⁻¹	6.03e-05 ± 9.3e-06 s⁻¹	–	3.62e-05 ± 9e-06 s⁻¹
A39G A64G	0.127 ± 0.027 s⁻¹	5960 ± 1400 µM	0.0131 ± 0.0018 s⁻¹	0.0328 ± 0.0078 s⁻¹	0.0876 ± 0.026 s⁻¹	0.000853 ± 0.00016 s⁻¹	0.00322 ± 0.00052 s⁻¹
